Here are results for one substance from publication PMC8396234.

The target in this test is GHSR1a-RLuc (ghrelin GHSR1a receptor fused to Renilla luciferase) (human) (UniProt Q92847). The note with it: scale: % decrease of forskolin-induced cAMP levels.
Sequence of UniProt Q92847 (Q92847 whole entry, the tested form may be a part): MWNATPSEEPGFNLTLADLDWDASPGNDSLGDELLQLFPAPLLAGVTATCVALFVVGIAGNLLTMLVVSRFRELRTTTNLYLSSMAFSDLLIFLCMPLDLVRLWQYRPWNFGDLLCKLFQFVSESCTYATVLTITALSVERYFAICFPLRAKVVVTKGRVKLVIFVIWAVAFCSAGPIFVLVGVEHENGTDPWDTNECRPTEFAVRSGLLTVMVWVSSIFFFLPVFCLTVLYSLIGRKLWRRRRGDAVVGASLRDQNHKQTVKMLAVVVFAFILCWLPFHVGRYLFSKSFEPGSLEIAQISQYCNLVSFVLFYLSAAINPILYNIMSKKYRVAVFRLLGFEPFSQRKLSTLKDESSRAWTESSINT

Substance Ghrelin (peptide) displayed a forskolin-induced cAMP levels in HEK-293T cells expressing GHSR1a alone, 200 nM ghrelin of 25.
